How the values were obtained:
[1] = target: the molecule itself; experiment: SEC-MALS, self-association
Text: FIGS. 4A-F define the oligomeric species of GAC mutants. In particular, multi-angle light scattering profiles of WT-GAC (FIG. 4A), D391K-GAC (FIG. 4B), K316E-D391K-R459E-GAC (FIG. 4C), and K316E-GAC (FIG. 4D) were obtained following SEC and subsequent MALS analysis, where elution of each species was monitored using refractive index (left axis). Upon elution, light scattering data was collected and then used to calculate the molecular weight and polydispersity for the species eluted (right axis). Reference lines for the molecular weights of the monomer, dimer, and tetramer forms of GAC are included at 58 kD, 116 kD, and 230 kD respectively. […]
Purified GAC and GAC mutants were subjected to analytical size exclusion chromatography on a Superdex 200 10/300 GL column (GE Healthcare) equilibrated with 20 mM Tris-HCl pH 8.5, 200 mM NaCl for experiments in the absence of inorganic phosphate and 20 mM Tris-HCl pH 8.5, 200 mM NaCl, 50 mM K₂HPO₄ for experiments in the presence of inorganic phosphate at a temperature of 4° C. and flow rate of 0.4 ml/min. […] RMS radius and mass distribution (polydispersity) was analyzed using the ASTRA software using monomeric BSA (Sigma) to normalize the light scattering signal.

[2] = target: the molecule itself; experiment: analytical gel filtration (Superdex 200 10/300 GL), self-association
Procedure: FIGS. 3A-C illustrate that WT GAC accesses monomer, dimer, and larger oligomeric species in a concentration and phosphate dependent manner.
Purified GAC and GAC mutants were subjected to analytical size exclusion chromatography on a Superdex 200 10/300 GL column (GE Healthcare) equilibrated with 20 mM Tris-HCl pH 8.5, 200 mM NaCl for experiments in the absence of inorganic phosphate and 20 mM Tris-HCl pH 8.5, 200 mM NaCl, 50 mM K₂HPO₄ for experiments in the presence of inorganic phosphate at a temperature of 4° C. and flow rate of 0.4 ml/min. Protein concentrations were prepared to be either 5 mg/mL or 0.5 mg/mL and centrifuged at 10,000×g for 10 minutes prior to injecting 200 μL of each sample. The same protocol was followed for MALS analysis. Briefly, 50 μL samples of 0.5, 5, or 10 mg/mL GAC was injected onto a WTC-030S5 size exclusion column (Wyatt technology) coupled to a static 18-angle light scattering detector (DAWN HELEOS-II) and a refractive index detector (OptiLab T-rEX, Wyatt Technology) kept at 23° C. The flow rate was kept at 1 mL/min. RMS radius and mass distribution (polydispersity) was analyzed using the ASTRA software using monomeric BSA (Sigma) to normalize the light scattering signal.

| Protein | concentration dependent activation of WT-GAC (glutaminase activity, two-step assay, no phosphate) | glutaminase specific activity (µM Glu/µM GAC min) of 50 nM WT-GAC, two-step assay, 20 mM glutamine, phosphate varied | glutaminase specific activity (µM Glu/µM GAC min), two-step assay, 20 mM glutamine, no phosphate | binding result [1] | concentration dependent activation (glutaminase activity, 20 mM glutamine, no phosphate) | binding result [2] |
| --- | --- | --- | --- | --- | --- | --- |
| unlabeled wild type mouse GAC (glutaminase C, residues 72-603) (enzyme, Recombinant; His-tag cleaved with thrombin; The oligomeric state depends on concentration and phosphate; also called WT-GAC; WT GAC) LSSSPSEILQELGKGGTPPQQQQQQQQQPGASPPAAPGPKDSPGETDAFGNSEGKEMVAAGDNKIKQGLLPSLEDLLFYTIAEGQEKIPVHKFITALKSTGLRTSDPRLKECMDMLRLTLQTTSDGVMLDKDLFKKCVQSNIVLLTQAFRRKFVIPDFMSFTSHIDELYESAKKQSGGKVADYIPQLAKFSPDLWGVSVCTVDGQRHSIGDTKVPFCLQSCVKPLKYAIAVNDLGTEYVHRYVGKEPSGLRFNKLFLNEDDKPHNPMVNAGAIVVTSLIKQGVNNAEKFDYVMQFLNKMAGNEYVGFSNATFQSERESGDRNFAIGYYLKEKKCFPEGTDMVGILDFYFQLCSIEVTCESASVMAATLANGGFCPITGERVLSPEAVRNTLSLMHSCGMYDFSGQFAFHVGLPAKSGVAGGILLVVPNVMGMMCWSPPLDKMGNSVKGIHFCHDLVSLCNFHNYDNLRHFAKKLDPRREGGDQRHSFGPLDYESLQQELALKDTVWKKVSPESSDDTSTTVVYRMESLGERS | The quenching was shown to be concentration dependent with the resultant FRET titration curve strongly correlating with the concentration dependent activation of WT-GAC | specific activity (filled circles) rises from about 500 near 3 mM phosphate to about 5000 at 20 mM and 8000 at 45 mM; it is flat at about 8700 from 67 to 150 mM | specific activity (filled circles) rises from about 100 at 50 nM GAC to about 290 at 230 nM, 410 at 510 nM and about 460-470 at 770 and 1150 nM, lying on the FRET points | binds |  |  |
| unlabeled mouse GAC D391K (constitutive dimer mutant) (enzyme, also called D391K-GAC) LSSSPSEILQELGKGGTPPQQQQQQQQQPGASPPAAPGPKDSPGETDAFGNSEGKEMVAAGDNKIKQGLLPSLEDLLFYTIAEGQEKIPVHKFITALKSTGLRTSDPRLKECMDMLRLTLQTTSDGVMLDKDLFKKCVQSNIVLLTQAFRRKFVIPDFMSFTSHIDELYESAKKQSGGKVADYIPQLAKFSPDLWGVSVCTVDGQRHSIGDTKVPFCLQSCVKPLKYAIAVNDLGTEYVHRYVGKEPSGLRFNKLFLNEDDKPHNPMVNAGAIVVTSLIKQGVNNAEKFDYVMQFLNKMAGNEYVGFSNATFQSERESGKRNFAIGYYLKEKKCFPEGTDMVGILDFYFQLCSIEVTCESASVMAATLANGGFCPITGERVLSPEAVRNTLSLMHSCGMYDFSGQFAFHVGLPAKSGVAGGILLVVPNVMGMMCWSPPLDKMGNSVKGIHFCHDLVSLCNFHNYDNLRHFAKKLDPRREGGDQRHSFGPLDYESLQQELALKDTVWKKVSPESSDDTSTTVVYRMESLGERS |  |  |  |  | no concentration dependent activation was observed of purified GAC mutants | binds |
| Δ72 K316E-GAC (enzyme, Unlabeled single mutant of the mouse GAC construct) glutaminase C subunit: LSSSPSEILQELGKGGTPPQQQQQQQQQPGASPPAAPGPKDSPGETDAFGNSEGKEMVAAGDNKIKQGLLPSLEDLLFYTIAEGQEKIPVHKFITALKSTGLRTSDPRLKECMDMLRLTLQTTSDGVMLDKDLFKKCVQSNIVLLTQAFRRKFVIPDFMSFTSHIDELYESAKKQSGGKVADYIPQLAKFSPDLWGVSVCTVDGQRHSIGDTKVPFCLQSCVKPLKYAIAVNDLGTEYVHRYVGEEPSGLRFNKLFLNEDDKPHNPMVNAGAIVVTSLIKQGVNNAEKFDYVMQFLNKMAGNEYVGFSNATFQSERESGDRNFAIGYYLKEKKCFPEGTDMVGILDFYFQLCSIEVTCESASVMAATLANGGFCPITGERVLSPEAVRNTLSLMHSCGMYDFSGQFAFHVGLPAKSGVAGGILLVVPNVMGMMCWSPPLDKMGNSVKGIHFCHDLVSLCNFHNYDNLRHFAKKLDPRREGGDQRHSFGPLDYESLQQELALKDTVWKKVSPESSDDTSTTVVYRMESLGERS |  |  |  | binds |  |  |

Reference: patent US20160002619A1 (CORNELL UNIVERSITY, published 2016)
